Test results taken from the Immune Epitope Database (IEDB).
Each block holds one sequence with its values, some of them ahead of it.

Assays:
HLA-A*30:02 = test: IEDB peptide-MHC binding, purified MHC/competitive/radioactivity; filed as Kd, often an IC50 or EC50 that approximates it; ≥ and ≤ were set here for values at or beyond the usual limits of such assays
HLA-A*01:01 = test: as above
HLA-A*29:02 = test: as above
HLA-A*26:01 = test: as above
HLA-A*23:01 = test: as above
HLA-A*24:02 = test: as above
HLA-B*35:01 = test: as above
HLA-B*44:02 = test: as above
HLA-B*44:03 = test: as above
HLA-A*02:03 = test: as above
HLA-A*02:06 = test: as above
HLA-A*02:02 = test: as above
HLA-A*68:02 = test: as above
HLA-A*02:01 [1] = test: IEDB peptide-MHC binding, purified MHC/competitive/fluorescence; ≥ and ≤ were set here for values at or beyond the usual limits of such assays; details: source organism: Hepatitis C virus genotype 1
HLA-A*31:01 = test: IEDB peptide-MHC binding, purified MHC/direct/fluorescence; filed as Kd, often an IC50 or EC50 that approximates it; ≥ and ≤ were set here for values at or beyond the usual limits of such assays; details: source organism: Escherichia coli
HLA-A*03:01 = test: as above; details: source organism: Escherichia coli
HLA-B*40:01 = test: IEDB peptide-MHC binding, purified MHC/competitive/radioactivity; filed as Kd, often an IC50 or EC50 that approximates it; ≥ and ≤ were set here for values at or beyond the usual limits of such assays
HLA-A*02:01 [2] = test: IEDB peptide-MHC binding, purified MHC/competitive/fluorescence; filed as Kd, often an IC50 or EC50 that approximates it; ≥ and ≤ were set here for values at or beyond the usual limits of such assays
HLA-B*51:01 = test: IEDB peptide-MHC binding, purified MHC/competitive/radioactivity; filed as Kd, often an IC50 or EC50 that approximates it; ≥ and ≤ were set here for values at or beyond the usual limits of such assays
HLA-B*53:01 = test: as above
HLA-B*08:01 = test: as above
HLA-A*32:01 = test: as above; details: source organism: Dengue virus 1 Brazil/97-11/1997
[3] = source organism: SARS coronavirus Tor2
[4] = source organism: Dengue virus 1 Singapore/S275/1990
[5] = source organism: Dengue virus 1 Brazil/97-11/1997
[6] = source organism: Dengue virus 2 Jamaica/1409/1983
[7] = source organism: Hepatitis C virus (isolate 1)
[8] = source organism: Dengue virus 3 Martinique/1243/1999
[9] = source organism: Dengue virus 4 Philippines/H241/1956
[10] = source organism: Mammarenavirus caliense
[11] = source organism: Vaccinia virus WR
[12] = source organism: Mammarenavirus whitewaterense
[13] = source organism: Trypanosoma cruzi

Sequence: VSIINNAVY
- Kd (HLA-A*30:02; [3]): 0.00917 µM
- Kd (HLA-A*01:01; [3]): 0.883 µM
- Kd (HLA-A*29:02; [3]): 1.07 µM
- Kd (HLA-A*26:01; [3]): 15.3 µM
- Kd (HLA-A*23:01; [3]): ≥ 44.3 µM
- Kd (HLA-A*24:02; [3]): ≥ 58.7 µM

Sequence: MAMVLSIVS
- Kd (HLA-B*35:01; [4]): 0.659 µM

Sequence: AAVLMLVAHY
- Kd (HLA-A*30:02; [5]): 0.508 µM

Sequence: LEENVEVEIW
- Kd (HLA-B*44:02; [6]): 0.124 µM
- Kd (HLA-B*44:03; [6]): 0.367 µM

Sequence: RNPKNENDQY
- Kd (HLA-A*30:02; [6]): 0.0207 µM

Sequence: CINGVCWTV
- Kd (HLA-A*02:03; [7]): 6.44 µM
- Kd (HLA-A*02:06; [7]): 4.37 µM
- Kd (HLA-A*02:02; [7]): 3.35 µM
- Kd (HLA-A*68:02; [7]): 3.78 µM
- IC50 (HLA-A*02:01 [1]): ≥ 50 µM

- Kd (HLA-A*31:01): 0.204 µM
- Kd (HLA-A*03:01): ≥ 20 µM
Sequence: MPKPSLFVR

Sequence: MESEGIFSP
- Kd (HLA-B*40:01; [4]): 2.27 µM

Sequence: NLEKKITNV
- Kd (HLA-A*02:01 [2]; source organism: Vaccinia virus WR 65-16): 0.216 µM

Sequence: IPPTAGVLA
- Kd (HLA-B*51:01; [8]): 6.14 µM

Sequence: VYKVYYGNAL
- Kd (HLA-A*30:02; [3]): 5.98 µM
- Kd (HLA-A*01:01; [3]): ≥ 37.2 µM
- Kd (HLA-A*29:02; [3]): 7.77 µM
- Kd (HLA-A*26:01; [3]): 11.7 µM
- Kd (HLA-A*23:01; [3]): 0.746 µM
- Kd (HLA-A*24:02; [3]): 0.203 µM

Sequence: TVFFVLMMLV
- Kd (HLA-A*68:02; [9]): 0.0387 µM

Sequence: LAGPMPVTV
- Kd (HLA-B*51:01; [5]): 0.87 µM

Sequence: YQPDTGNYI
- Kd (HLA-A*29:02; [10]): ≥ 78.9 µM
- Kd (HLA-A*23:01; [10]): 5.79 µM
- Kd (HLA-A*24:02; [10]): 5.26 µM

Sequence: EEIAVQNWLA
- Kd (HLA-B*44:03; [6]): 0.431 µM

Sequence: LTDYGALTL
- Kd (HLA-A*01:01; [5]): 0.201 µM

Sequence: SEAVNDSRFW
- Kd (HLA-B*44:02; [9]): 0.0114 µM
- Kd (HLA-B*44:03; [9]): 0.0414 µM

Sequence: FPGKTVWFV
- Kd (HLA-B*51:01; [5]): 6.36 µM
- Kd (HLA-B*53:01; [5]): 0.0861 µM

Sequence: FMYTKHSML
- Kd (HLA-A*02:03; [11]): 0.000394 µM
- Kd (HLA-A*02:06; [11]): 0.222 µM
- Kd (HLA-A*02:02; [11]): 0.0024 µM
- Kd (HLA-B*08:01; [11]): 0.0002 µM

Sequence: GVVTTSGTY
- Kd (HLA-A*30:02; [5]): 0.169 µM
- Kd (HLA-A*26:01; [5]): 0.403 µM

Sequence: ILDSFDPLV
- Kd (HLA-A*02:01 [2]; source organism: Hepacivirus hominis): 0.0006 µM

Sequence: MLVTPSMTM
- Kd (HLA-B*35:01; [8]): 3.84 µM

Sequence: DKRMKSLAM
- Kd (HLA-B*08:01; [11]): 0.00985 µM

Sequence: GESSPNPTI
- Kd (HLA-B*44:02; [6]): 0.0835 µM
- Kd (HLA-B*40:01; [6]): 0.00875 µM

Sequence: KTDWLPMTV
- Kd (HLA-A*01:01; source organism: Dengue virus 3 Sri Lanka/1266/2000): 0.0565 µM

Sequence: MEVDRSEAK
- Kd (HLA-B*44:02; [5]): 7.94 µM

Sequence: PYIASRSQI
- Kd (HLA-A*29:02; [12]): ≥ 78.9 µM
- Kd (HLA-A*23:01; [12]): 0.492 µM
- Kd (HLA-A*24:02; [12]): 2.81 µM

Sequence: AGILARWSSF
- Kd (HLA-B*44:02; [5]): 5.11 µM
- Kd (HLA-A*32:01): 2.82 µM

Sequence: KEENLVKSMV
- Kd (HLA-B*44:03; [4]): ≥ 22.1 µM

Sequence: VTYLALIATF
- Kd (HLA-A*01:01; [8]): ≥ 50.8 µM
- Kd (HLA-A*26:01; [8]): ≥ 21.2 µM

Sequence: LCLIPTVMAF
- Kd (HLA-A*23:01; source organism: Dengue virus 4 Dominica/814669/1981): 0.454 µM

Sequence: TPEGIIPSM
- Kd (HLA-B*35:01; [6]): 0.00757 µM
- Kd (HLA-B*53:01; [6]): 0.252 µM

Sequence: ASMAICSAV
- Kd (HLA-A*68:02; [9]): 0.0637 µM

Sequence: MWLGARYLEF
- Kd (HLA-A*23:01; [8]): 0.00354 µM
- Kd (HLA-A*24:02; [8]): 0.0977 µM

Sequence: TTERGGKAY
- Kd (HLA-A*01:01; [9]): 0.917 µM

- Kd (HLA-A*68:02; source organism: Homo sapiens): ≥ 60 µM
Sequence: ILEDQNCKL

Sequence: KLELKGMSY
- Kd (HLA-A*30:02; [8]): ≥ 76.9 µM
- Kd (HLA-A*01:01; [8]): 0.391 µM

Sequence: IENSSVNVSL
- Kd (HLA-B*40:01; [6]): 0.00159 µM
- Kd (HLA-B*08:01; [6]): 0.764 µM

Sequence: RTAGMIIMLI
- Kd (HLA-A*68:02; source organism: Dengue virus 2 Peru/IQT2913/1996): 0.0616 µM

Sequence: VPLLAIGCY
- Kd (HLA-B*35:01; [6]): 0.168 µM

Sequence: VLPFDIKKL
- Kd (HLA-A*02:01 [2]; [11]): 0.525 µM

Sequence: MAISGDDCVV
- Kd (HLA-B*51:01; [6]): 4.86 µM

Sequence: LTMKNKAWMV
- Kd (HLA-A*68:02; [8]): 0.0167 µM

Sequence: NYCEGTTVVI
- Kd (HLA-A*23:01; [8]): 0.101 µM
- Kd (HLA-A*24:02; [8]): 0.0434 µM

Sequence: FVNHRFTLV
- Kd (HLA-A*02:03; [13]): 0.00138 µM
- Kd (HLA-A*02:06; [13]): 0.00657 µM
- Kd (HLA-A*02:02; [13]): 0.0818 µM
- Kd (HLA-A*68:02; [13]): 0.0893 µM

Sequence: YVILTILTII
- Kd (HLA-A*02:06; [9]): 0.00238 µM
- Kd (HLA-B*53:01; [9]): 5.33 µM
